Key:
[1] = biological target: T1, HOXA13 DNA-binding domain peptide (A13-DBD) (UniProt Q62424 320-386); experiment: fluorescence anisotropy; abstract gives range 27-42 nM; FP: 1 nM fluorescein-labeled hairpin, 0-200 nM HOXA13-DBD, 15 C, buffer per ref 71 (not given); EMSA: Promega Gel Shift Binding System; settings: protein: recombinant, label: fluorescein, CCCCCCC-region loop
[2] = biological target: T1, HOXA13 DNA-binding domain peptide …; experiment: fluorescence anisotropy; legend says affinity ablated; titrated only to 200 nM; FP: 1 nM fluorescein-labeled hairpin, 0-200 nM HOXA13-DBD, 15 C, buffer per ref 71 (not given); EMSA: Promega Gel Shift Binding System; settings: protein: recombinant, label: fluorescein, 14 bp stem, CCCCC loop

T1 sequence (Q62424 320-386): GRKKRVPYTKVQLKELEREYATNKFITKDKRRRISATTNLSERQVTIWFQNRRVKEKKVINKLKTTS

B1: Foxf1 hairpin (structured_DNA)
DNA: CTTATTATTAAAGGCCCCCCCTTTAATAATAAG
Kd [1]: 48 ± 4 nM

B2: TGAC control hairpin (structured_DNA)
DNA: TGACTGACTGACTGCCCCCCAGTCAGTCAGTCA
Kd [2]: 250 ± 22 nM
